System: TRMT10C (native, untagged, in complex);SDR5C1 (Homo sapiens;Homo sapiens)
Assay: EMSA
Conditions: concentration refers to TRMT10C content; EMSA: 1 nM 5'-labelled pre-tRNA, 10 nM-1.2 uM protein, methylation/processing buffer (composition not in material) + 100 mM sucrose, 30 min at room …

Row | Substance | Kd [nM]
1 | (mt)pre-tRNAIle | 88
2 | (mt)pre-tRNAHis | 143

Source: publication PMC3526285
